# Experimental data as given in patent publication US20260184748A1 (University of Pennsylvania, published 2026).
# Where no end group is shown, it is not given here.
# Tests used:
# Assay in all cases: cell-based or functional assay
# AGTRL1 = biological target: T1, AGTRL1 (UniProt P35414 1-380)
# T1 sequence (looked up): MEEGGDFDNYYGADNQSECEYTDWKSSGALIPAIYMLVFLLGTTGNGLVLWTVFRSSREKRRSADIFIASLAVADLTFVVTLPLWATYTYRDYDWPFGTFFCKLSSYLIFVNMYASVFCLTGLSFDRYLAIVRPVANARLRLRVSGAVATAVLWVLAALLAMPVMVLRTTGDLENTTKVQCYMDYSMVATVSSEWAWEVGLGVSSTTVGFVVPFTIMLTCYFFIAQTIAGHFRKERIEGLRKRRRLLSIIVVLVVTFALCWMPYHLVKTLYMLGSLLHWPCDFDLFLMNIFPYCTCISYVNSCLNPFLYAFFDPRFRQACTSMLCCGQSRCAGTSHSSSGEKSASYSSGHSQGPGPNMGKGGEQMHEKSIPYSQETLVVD
# P2RY4 = P2RY4 (UniProt P51582 1-365)
# MCHR2 = MCHR2 (UniProt Q969V1 1-340)
# NPBWR1 = biological target: T2, NPBWR1 (UniProt P48145 1-328)
# T2 sequence (looked up): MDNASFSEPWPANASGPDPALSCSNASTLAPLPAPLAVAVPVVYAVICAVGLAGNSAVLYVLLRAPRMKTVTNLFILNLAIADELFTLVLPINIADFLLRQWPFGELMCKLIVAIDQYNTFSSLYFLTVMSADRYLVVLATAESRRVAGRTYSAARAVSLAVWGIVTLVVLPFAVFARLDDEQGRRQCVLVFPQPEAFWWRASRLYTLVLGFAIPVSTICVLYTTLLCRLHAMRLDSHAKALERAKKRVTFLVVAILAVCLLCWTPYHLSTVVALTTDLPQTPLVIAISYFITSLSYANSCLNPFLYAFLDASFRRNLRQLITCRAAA
# TBXA2R = biological target: T3, TBXA2R (UniProt P21731 1-343, limits assumed)
# T3 sequence (looked up): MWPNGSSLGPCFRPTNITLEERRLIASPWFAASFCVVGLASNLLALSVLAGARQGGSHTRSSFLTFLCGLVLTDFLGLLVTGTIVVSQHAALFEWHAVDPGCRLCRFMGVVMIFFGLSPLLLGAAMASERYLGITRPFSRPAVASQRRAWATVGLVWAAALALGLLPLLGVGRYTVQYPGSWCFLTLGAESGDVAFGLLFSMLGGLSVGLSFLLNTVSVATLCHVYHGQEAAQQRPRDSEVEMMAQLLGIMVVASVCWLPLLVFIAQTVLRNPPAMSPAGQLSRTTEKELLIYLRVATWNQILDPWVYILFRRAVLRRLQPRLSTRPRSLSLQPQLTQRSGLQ
# CXCR5 = biological target: T4, CXCR5 (UniProt P32302 1-372)
# T4 sequence (looked up): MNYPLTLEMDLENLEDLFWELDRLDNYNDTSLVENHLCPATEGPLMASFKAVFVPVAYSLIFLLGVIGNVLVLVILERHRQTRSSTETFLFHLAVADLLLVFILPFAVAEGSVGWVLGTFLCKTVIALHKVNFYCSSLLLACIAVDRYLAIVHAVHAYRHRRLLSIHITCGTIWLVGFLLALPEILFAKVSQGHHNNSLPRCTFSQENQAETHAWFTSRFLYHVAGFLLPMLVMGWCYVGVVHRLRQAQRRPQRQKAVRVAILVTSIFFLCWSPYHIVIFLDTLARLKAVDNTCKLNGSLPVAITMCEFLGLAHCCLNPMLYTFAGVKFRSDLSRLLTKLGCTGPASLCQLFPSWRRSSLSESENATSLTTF
# DRD4 = biological target: T5, DRD4 (UniProt P21917 1-419, limits assumed)
# T5 sequence (looked up): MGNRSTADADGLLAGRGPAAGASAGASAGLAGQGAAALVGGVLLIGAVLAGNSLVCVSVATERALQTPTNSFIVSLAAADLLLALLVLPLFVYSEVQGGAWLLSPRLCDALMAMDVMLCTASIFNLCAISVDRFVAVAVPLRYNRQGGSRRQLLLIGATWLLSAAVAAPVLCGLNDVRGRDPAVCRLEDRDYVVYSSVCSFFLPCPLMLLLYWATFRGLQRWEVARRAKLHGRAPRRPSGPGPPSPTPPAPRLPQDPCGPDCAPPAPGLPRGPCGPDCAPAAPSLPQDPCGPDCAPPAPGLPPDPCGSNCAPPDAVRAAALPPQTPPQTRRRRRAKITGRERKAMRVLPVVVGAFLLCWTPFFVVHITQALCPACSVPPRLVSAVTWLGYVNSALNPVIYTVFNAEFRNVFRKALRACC
# CXCR6 = CXCR6 (UniProt O00574 1-342)
# CXCR3 = biological target: T6, CXCR3 (UniProt P49682 1-368)
# T6 sequence (looked up): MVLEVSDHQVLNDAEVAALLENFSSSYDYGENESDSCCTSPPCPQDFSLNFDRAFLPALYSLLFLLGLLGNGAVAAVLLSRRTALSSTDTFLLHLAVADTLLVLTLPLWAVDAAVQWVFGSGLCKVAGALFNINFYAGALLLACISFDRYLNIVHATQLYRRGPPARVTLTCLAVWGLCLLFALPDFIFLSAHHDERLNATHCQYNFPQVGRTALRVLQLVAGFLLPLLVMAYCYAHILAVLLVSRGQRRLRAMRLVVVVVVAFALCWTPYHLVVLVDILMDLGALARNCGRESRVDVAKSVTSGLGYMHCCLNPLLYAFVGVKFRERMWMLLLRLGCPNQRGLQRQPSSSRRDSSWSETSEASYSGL
# F2RL3 = biological target: T7, F2RL3 (UniProt Q96RI0 18-385, limits assumed)
# T7 sequence (looked up): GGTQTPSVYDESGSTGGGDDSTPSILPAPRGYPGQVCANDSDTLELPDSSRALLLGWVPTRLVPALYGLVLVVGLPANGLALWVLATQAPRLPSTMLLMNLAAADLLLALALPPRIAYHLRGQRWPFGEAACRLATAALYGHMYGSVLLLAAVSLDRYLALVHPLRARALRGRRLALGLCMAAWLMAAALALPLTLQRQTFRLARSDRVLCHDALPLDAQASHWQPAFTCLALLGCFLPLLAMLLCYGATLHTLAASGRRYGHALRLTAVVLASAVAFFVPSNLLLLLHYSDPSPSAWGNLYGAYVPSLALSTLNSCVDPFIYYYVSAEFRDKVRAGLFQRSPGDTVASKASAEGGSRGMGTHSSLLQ
# ADRB2 = ADRB2 (UniProt P07550 1-413)
# P2RY4, sequence (P51582 whole entry): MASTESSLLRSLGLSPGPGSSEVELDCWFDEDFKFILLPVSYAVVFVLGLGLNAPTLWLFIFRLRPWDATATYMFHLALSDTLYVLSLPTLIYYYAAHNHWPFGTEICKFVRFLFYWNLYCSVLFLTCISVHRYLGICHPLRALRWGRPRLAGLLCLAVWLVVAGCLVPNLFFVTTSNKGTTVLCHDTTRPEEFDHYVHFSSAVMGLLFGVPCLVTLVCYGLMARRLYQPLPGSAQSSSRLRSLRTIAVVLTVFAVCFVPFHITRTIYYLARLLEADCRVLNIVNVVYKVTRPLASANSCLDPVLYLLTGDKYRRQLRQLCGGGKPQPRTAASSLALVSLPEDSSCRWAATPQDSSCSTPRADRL
# CXCR6, sequence (O00574 whole entry): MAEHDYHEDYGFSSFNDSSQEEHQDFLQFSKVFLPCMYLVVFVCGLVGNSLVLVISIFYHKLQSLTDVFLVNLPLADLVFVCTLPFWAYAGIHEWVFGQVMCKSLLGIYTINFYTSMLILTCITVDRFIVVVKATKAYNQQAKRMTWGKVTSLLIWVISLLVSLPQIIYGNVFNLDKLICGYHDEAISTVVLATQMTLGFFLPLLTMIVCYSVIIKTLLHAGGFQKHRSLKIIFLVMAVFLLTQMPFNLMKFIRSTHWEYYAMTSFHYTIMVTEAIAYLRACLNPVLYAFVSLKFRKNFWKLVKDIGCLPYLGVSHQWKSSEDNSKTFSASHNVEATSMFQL
# MCHR2, sequence (Q969V1 whole entry): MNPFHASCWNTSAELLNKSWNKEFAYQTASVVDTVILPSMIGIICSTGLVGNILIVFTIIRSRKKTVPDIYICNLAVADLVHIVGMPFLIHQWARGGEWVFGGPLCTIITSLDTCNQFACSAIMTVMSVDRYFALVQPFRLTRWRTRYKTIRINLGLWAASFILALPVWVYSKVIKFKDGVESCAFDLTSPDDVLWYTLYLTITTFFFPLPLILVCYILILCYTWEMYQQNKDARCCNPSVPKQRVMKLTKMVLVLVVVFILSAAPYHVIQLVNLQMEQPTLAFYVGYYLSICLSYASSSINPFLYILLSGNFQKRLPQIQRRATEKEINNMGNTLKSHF
binder,measurement,setting,value
"QATVGDVNTDRPGLLDLK (also: synthesised on Rink amide resin, C-terminal amide not given here outright) [octadecaneuropeptide (ODN)]","% Activity, arrestin, antagonist mode, 2.5 uM",AGTRL1,-23.4%
same,"% Activity, arrestin, antagonist mode, 2.5 uM",P2RY4,12.9%
same,"% Activity, arrestin, antagonist mode, 2.5 uM",MCHR2,-10.5%
same,"% Activity, arrestin, antagonist mode, 2.5 uM",NPBWR1,-15%
same,"% Activity, arrestin, antagonist mode, 2.5 uM",TBXA2R,16.2%
same,"% Activity, arrestin, antagonist mode, 2.5 uM",CXCR5,-18.9%
same,"% Activity, arrestin, antagonist mode, 2.5 uM",DRD4,2.5%
same,"% Activity, arrestin, antagonist mode, 2.5 uM",CXCR6,-1.3%
same,"% Activity, arrestin, antagonist mode, 2.5 uM",CXCR3,-7.5%
same,"% Activity, arrestin, antagonist mode, 2.5 uM",F2RL3,-25.9%
same,"% Activity, arrestin, antagonist mode, 2.5 uM",ADRB2,-11.7%
